Here are results for 3 substances from paper PMC7970865.

“And” between values parts separate entries of the source, which are not always exact repeats. Equal values may be shown once. Some results are limits rather than exact numbers.

Experiment [1] deals with nearly full-length recombinant FL-CSP (Plasmodium falciparum) (UniProt Q7K740). The experiment is described as follows: ELISA.
Experiment [2] shares this target. Nature of the experiment: BLI; Octet RED384; FL-CSP amine-coupled to AR2G biosensors, bivalent mAb in solution, 1x kinetics buffer, 25 °C; 1:1 Langmuir model; mean of quadruplicate measurements.
Experiment [3] has the same target. The experiment is described as follows: BLI; Octet RED96; biotinylated FL-CSP or biotinylated NANPx6 on streptavidin biosensors, Fab in solution, kinetics buffer; global fit to 1:1 Langmuir model. A general note: Biolayer interferometry detects binding as a change in optical thickness at a sensor tip.
The target in experiment [4] is nearly full-length recombinant P. falciparum circumsporozoite protein (FL-CSP) (Plasmodium falciparum) (UniProt Q7K740). The experiment is described as follows: BLI.

On to mAb CIS43 (antibody), for which the ng/ml mAb needed for OD = 1 in experiment [1] was below 6 ng/mL. Besides, in experiment [2], the Kd was 0.46 nM; the koff – broadly, the rate constant with which the complex falls apart – stood at 0.000692 s⁻¹; the kon – broadly, the second-order rate constant of association – is 1.5e+06 M⁻¹ s⁻¹.

In the case of Fab CIS43, in experiment [3], the Kd is 2 nM, the koff worked out at 4.8e-05 s⁻¹ and the kon was 28000 M⁻¹ s⁻¹.

As for “mAb CIS43 (intact human IgG1) (antibody)”, the on-rate constant (kon) in experiment [4] was 1.4e+06 1/(M s) (2×) and 1.7e+06 1/(M s) and 1.6e+06 1/(M s).
